Test [1] has as its target T1, human LAG-3 overexpressed on cells (human, UniProt P18627 23-525).
T1 sequence (looked up): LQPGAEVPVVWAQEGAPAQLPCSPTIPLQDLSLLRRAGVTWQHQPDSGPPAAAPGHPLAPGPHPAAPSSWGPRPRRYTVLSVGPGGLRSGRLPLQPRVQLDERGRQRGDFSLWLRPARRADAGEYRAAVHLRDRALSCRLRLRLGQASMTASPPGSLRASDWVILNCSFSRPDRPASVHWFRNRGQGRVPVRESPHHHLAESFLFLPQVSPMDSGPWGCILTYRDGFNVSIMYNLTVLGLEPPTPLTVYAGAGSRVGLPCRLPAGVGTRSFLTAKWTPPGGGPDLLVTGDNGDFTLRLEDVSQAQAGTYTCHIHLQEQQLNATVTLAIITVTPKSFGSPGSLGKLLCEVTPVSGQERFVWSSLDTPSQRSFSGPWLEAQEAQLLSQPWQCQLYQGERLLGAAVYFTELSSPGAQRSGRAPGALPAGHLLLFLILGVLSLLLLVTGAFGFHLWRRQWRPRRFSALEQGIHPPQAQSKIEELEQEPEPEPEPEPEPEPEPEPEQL
Description: cell-based or functional assay.

In test [2] the target is T2, recombinant human LAG-3 extracellular domain fused with mouse Fc (hLAG-3-mFc) (human, UniProt P18627 29-450).
T2 construct: range 29-450; Made in HEK293F cells; also called human LAG-3 antigen; wild-type (WT) LAG-3; not shown: mouse Fc (mFc) at the carboxy terminal
T2 sequence (looked up): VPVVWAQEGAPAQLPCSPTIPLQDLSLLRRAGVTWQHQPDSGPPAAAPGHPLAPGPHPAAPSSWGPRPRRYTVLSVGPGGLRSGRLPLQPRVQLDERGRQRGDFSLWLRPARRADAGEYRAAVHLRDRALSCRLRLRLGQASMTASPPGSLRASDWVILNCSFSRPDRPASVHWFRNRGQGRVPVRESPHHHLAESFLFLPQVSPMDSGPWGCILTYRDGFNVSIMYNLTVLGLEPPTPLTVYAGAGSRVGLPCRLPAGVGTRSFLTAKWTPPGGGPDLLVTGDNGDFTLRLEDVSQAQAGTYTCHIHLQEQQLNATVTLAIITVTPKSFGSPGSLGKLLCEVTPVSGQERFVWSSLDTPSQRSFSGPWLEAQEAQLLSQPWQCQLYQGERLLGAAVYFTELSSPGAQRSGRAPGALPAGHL
As to the kind of experiment: BLI (Octet QKe), 1:1 global fit. On the procedure:
(§1) After stabilization for 10 minutes in a buffer (#18-1042, Fortebio Inc.), immobilized antigen or antibody was washed out for 5 minutes with the buffer. The antibody or antigen desired for binding was prepared at different concentrations (0.94-60 nM) in a 96-well plate (#655209, Greiner Bio-One, USA) and subjected to the association reaction for 10 minutes followed by dissociation reaction for 10 minutes or 30 minutes.
Background: In BLI a coated tip is dipped into the sample, and binding shifts an interference pattern.

Test [3] concerns the target T3, recombinant monkey LAG-3 fused with mouse Fc (MrhLAG-3-mFc) (monkey).
T3 construct: also called monkey LAG-3 antigen
As to the kind of experiment: BLI (Octet QKe), 1:1 global fit. As to the method: as §1

For test [4], the target named is T4, recombinant mouse LAG-3 fused with mouse Fc (mLAG-Fc) (mouse, UniProt Q61790 24-442, limits assumed).
T4 construct: also called mouse LAG-3 antigen; not shown: mouse Fc (mFc) at the carboxy terminal
T4 sequence (looked up): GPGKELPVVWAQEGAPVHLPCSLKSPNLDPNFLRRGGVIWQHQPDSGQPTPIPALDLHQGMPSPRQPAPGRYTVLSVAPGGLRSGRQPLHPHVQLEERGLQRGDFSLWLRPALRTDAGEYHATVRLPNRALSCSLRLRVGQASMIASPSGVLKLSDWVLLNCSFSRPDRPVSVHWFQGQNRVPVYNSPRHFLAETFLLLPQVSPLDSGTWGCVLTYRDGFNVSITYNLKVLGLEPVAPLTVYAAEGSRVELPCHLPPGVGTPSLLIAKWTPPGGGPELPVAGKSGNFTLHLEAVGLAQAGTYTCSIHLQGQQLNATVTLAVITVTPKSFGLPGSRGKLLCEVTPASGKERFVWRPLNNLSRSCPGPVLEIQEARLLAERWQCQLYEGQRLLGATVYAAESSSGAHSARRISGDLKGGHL
Description: BLI (Octet QKe), 1:1 global fit. On the procedure:
as §1

Test [5] concerns the target T2, recombinant human LAG-3 extracellular …. As to the kind of experiment: Octet biolayer interferometry, 1:1 global fit. As to the method:
as §1

Test [6] addresses T3, recombinant monkey LAG-3 fused with …. As to the kind of experiment: Octet biolayer interferometry, 1:1 global fit. On the procedure:
as §1

Test [7] deals with T1, human LAG-3 overexpressed on cells. Description: flow cytometry on HEK293E-hLAG3 cells, MFI, fitted curve. On the procedure: (§2) After that, the cells were washed three times with PBS containing 2% FBS and then subjected to the reaction for 30 minutes at 4° C. with anti-human IgG antibody (#FI-3000, Vectorlabs) linked with FITC fluorescent. The cells were washed by the same washing process as above followed by suspension in 0.2 ml PBS containing 2% FBS. The cells were then analyzed by FACSCanto II flow cytometer.
(In general: In flow cytometry, cells or beads pass a laser one at a time.)

Test [8] has as its target T5, mouse LAG-3 overexpressed on HEK293E cells (mouse, UniProt Q61790 24-521).
T5 construct: whole, on cells; also called HEK293E-mLAG3; mLAG3 (Mouse)
T5 sequence (looked up): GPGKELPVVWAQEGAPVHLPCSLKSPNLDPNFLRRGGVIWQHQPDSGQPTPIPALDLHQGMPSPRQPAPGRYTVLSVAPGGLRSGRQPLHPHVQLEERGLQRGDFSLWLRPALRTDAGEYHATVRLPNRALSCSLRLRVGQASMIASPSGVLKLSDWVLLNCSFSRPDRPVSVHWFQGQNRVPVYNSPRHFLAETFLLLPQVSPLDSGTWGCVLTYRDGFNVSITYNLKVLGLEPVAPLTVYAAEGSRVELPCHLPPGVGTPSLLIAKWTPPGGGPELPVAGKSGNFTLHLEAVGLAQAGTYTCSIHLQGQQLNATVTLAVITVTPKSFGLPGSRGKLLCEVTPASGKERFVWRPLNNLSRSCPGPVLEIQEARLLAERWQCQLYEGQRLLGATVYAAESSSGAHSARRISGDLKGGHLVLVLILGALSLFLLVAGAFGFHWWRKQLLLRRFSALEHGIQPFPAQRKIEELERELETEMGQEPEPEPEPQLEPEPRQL
Description: flow cytometry on HEK293E-mLAG3 cells, MFI, fitted curve. As to the method: as §2

The target in test [9] is T6, monkey (Rhesus monkey) LAG-3 overexpressed on HEK293E cells (Rhesus monkey, UniProt A0A5F8A874 23-533).
T6 construct: whole, on cells; also called HEK293E-MrhLAG3; MrhLAG3 (Rhesus Monkey)
T6 sequence: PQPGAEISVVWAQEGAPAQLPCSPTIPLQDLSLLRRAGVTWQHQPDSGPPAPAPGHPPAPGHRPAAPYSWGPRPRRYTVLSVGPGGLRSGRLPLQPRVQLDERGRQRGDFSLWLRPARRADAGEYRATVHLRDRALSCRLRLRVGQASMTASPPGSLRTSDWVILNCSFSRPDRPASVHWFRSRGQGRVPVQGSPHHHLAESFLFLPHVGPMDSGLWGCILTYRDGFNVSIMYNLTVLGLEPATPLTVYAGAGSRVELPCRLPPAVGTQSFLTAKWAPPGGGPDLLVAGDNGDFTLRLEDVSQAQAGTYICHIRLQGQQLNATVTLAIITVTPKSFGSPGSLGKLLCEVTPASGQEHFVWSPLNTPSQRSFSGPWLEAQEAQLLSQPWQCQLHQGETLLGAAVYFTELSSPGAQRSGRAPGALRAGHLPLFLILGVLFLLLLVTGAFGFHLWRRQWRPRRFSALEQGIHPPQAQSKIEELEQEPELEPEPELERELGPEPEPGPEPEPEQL
Description: flow cytometry on HEK293E-MrhLAG3 cells, MFI, fitted curve. As to the method:
as §2

Test [10] has as its target T4, recombinant mouse LAG-3 fused with …. Description: BLI (Octet QKe).
Test [11] deals with T5, mouse LAG-3 overexpressed on HEK293E …. As to the kind of experiment: flow cytometry on HEK293E-mLAG3 cells, MFI. As to the method:
as §2

The record followed here is patent publication US20210238283A1 (Y BIOLOGICS, published 2021).

The term Kd denotes a measure of binding affinity in units of concentration. As usually defined, the koff is the first-order rate constant of dissociation. By kon is commonly meant the rate constant with which the complex forms. For orientation: EC50 means the concentration at which the effect is half-maximal.

B1: LAG3-1E09_AM_2H01 (antibody, V domains shown)
VH: EVQLVESGGDLVQPGGSLRLSCAASGFTFSDHYMNWVRQAPGKGLEWVAYIDTSATYIYYADSVKGRFTISRDNAKNSLYLQMNSLRAEDTAVYYCARDNWGSLDYWGQGTLVTVSS
VL: DIQMTQSPSSLSASVGDRVTITCQASQDISNYLNWYQQKPGKAPNLLIYDASTLETGVPSRFSGSGYGTDFTLTISGLQPDDFALYYCQQSYSTPYSFGPGTKVEIK
notes: Tested as full IgG
As to B1, the “EC50 (µg/ml), LAG3/MHC class II Blockade bioassay” value in [1] amounted to 0.0822 µg/mL. Moreover, the Kd came to 0.136 nM in [2], 0.629 nM in test [3] and 2.62 nM in [4]. In addition, the koff in [5] worked out at 1.61e-05 s⁻¹; in test [6], 3.23e-05 s⁻¹. In addition, the kon was found to be 119000 M⁻¹ s⁻¹ in test [5] and 51400 M⁻¹ s⁻¹ in test [6]. Also, the values for the EC50 in test [7], in [8] and in test [9] were 0.0297 µg/mL, 1.74 µg/mL and 0.156 µg/mL, respectively.

B2: LAG3-1E09_FR_1E05 (antibody, V domains shown)
VH: EVQLVESGGGLVQPGGSLRLSCAASGFSFSDHYMNWVRQAPGKGLEWVAYIDTSATYIYYADSVKGRFTISRDNAKNSLYLQMNSLRAEDTAVYYCARDNWGSLDYWGQGTLVTVSS
VL: DIQMTQSPSSLSASVGDRVTITCRASQSISSWLAWYQHKPGKAPKLLIYDASNLETGAPSRFSGSGSGTDFTFTIYSLQPEDVATYYCQQYDTVPPTFGPGTKVDIK
notes: Tested as full IgG
On to B2, for which the binding result in test [10] is “no binding”; in test [11], “no binding (tested: Log10[Ab] about 0.8, µg/ml)”. Moreover, the “EC50 (µg/ml), LAG3/MHC class II Blockade bioassay” value in test [1] came out at 0.0938 µg/mL. The values for the Kd in [2] and in test [3] were 0.0906 nM and 0.456 nM, respectively. Moreover, the koff was determined as 1.03e-05 s⁻¹ in test [5] and 3.7e-05 s⁻¹ in test [6]. In addition, the kon was 114000 M⁻¹ s⁻¹ in [5] and 81100 M⁻¹ s⁻¹ in test [6]. The figures for the EC50 in test [7] and in [9] were 0.0926 µg/mL and 0.301 µg/mL, respectively.
